Measurements as given in the supplement of paper PMC12764529.
± gives the half width of the 95% confidence interval.

Assay: folding stability dG unfold from chymotrypsin proteolysis; higher = more stable
Outline: (§1)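 Bayesian fitting of sequencing counts gave K50 for each design. Unfolding free energy followed by setting this against a sequence-predicted unfolded-state K50 and a shared folded-state K50, either per protease or with trypsin and chymotrypsin combined. The designs, under 80 residues and lacking cysteine, were digested in a PA-tagged cDNA display format at 11 threefold-diluted protease concentrations and without protease, and only those with AlphaFold2 dimer inter-PAE above 15 were kept.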
With “SAMKVEPFTFKVTFKVPVLNPETGEATEEGVEAEVVVYRSDDGTLYVVAFVKFENGKTAVFPFTIDKDGSAG [r14_50_TrMRF]” the “folding stability dG unfold” value was 3.781 ± 0.029 kcal/mol. In the case of “SAGGSAGGSAMTIVVKSEEEAKKLAELLNAEVVEEKDGYLTIKLEGMSEEERKKILELLKKSAGGSAGGSAG [r3_398_TrROS_Hall]”, the “folding stability dG unfold” value is reported as 3.03 ± 0.17 kcal/mol. For “SAGGSPEQARRWAKYIAETRAGENGWEVEDVEVEQHPGGYVEASIDVQFPDGKKREITITIPPGDPFSAGGS [r8_175_TrROS]”, the “folding stability dG unfold” value was -0.361 ± 0.81 kcal/mol. For “SAGGSMELKPGDSIEFPENIPLDEIIELAKKIAEEFNFEGIEDIENPSEGFYRIRAITPDGRPIEISAGGSA [r2_168_TrMRF]”, the “folding stability dG unfold” value was 0.141 ± 0.18 kcal/mol. For “SAGGGPNTYVKVTLPLPPNKADVVEEIAKLFPNVKVEVTTTPENGTLPVTFYFPSPDGSPDAKVSIFSAGGS [r8_267_TrMRF]”, the “folding stability dG unfold” value was 1.11 ± 0.31 kcal/mol. In the case of “SAGGSAGGSGMELEKLLESVKEVKVEPTSSGEKEVTITLKPPEPSETEVKIDKETYEKLLELKSAGGSAGGS [r12_466_JUSTAS]”, the “folding stability dG unfold” value is reported as 0.404 ± 0.024 kcal/mol. In the case of “SAGGSAGGKLKVRIEIYRKDPKTNKWTKVKTIEIEIEAESEEELLAAAKALAPPGYEVKVELLPSAGGSAGG [r6_623_TrROS_Hall]”, the “folding stability dG unfold” value is reported as 5.23 ± 0.21 kcal/mol. For “SKIKKIKIVKVKPGEEITTPDGRKIKPGDIVIVDEKTNKVYSAEEIKKLLKELEEKLKKLPKKPKPKKKKSA [r9_517_TrROS_Hall]”, the “folding stability dG unfold” value was 1.78 ± 0.089 kcal/mol. In the case of “SAGGSAITLEDLKNAEIVKPEVMPFPDNGMWMPTWKLRDPGNGKEFVFTFMYNPGNGEPQWSLVPVSAGGSA [r15_170_TrROS]”, the “folding stability dG unfold” value is reported as 1.36 ± 0.1 kcal/mol. In the case of “SAGGSAGGSAGGMTVRITTPDGRVIEIPAKDLSPEQLAALKEAGFEVVSVEPGRVTIRLKSAGGSAGGSAGG [r7_496_TrROS_Hall]”, the “folding stability dG unfold” value is reported as 1.92 ± 0.036 kcal/mol. With “SAGGSAGGSAGMKPGEKVLLVKIKIKNENGEEETILVEMSLEELKKLLEEENIEVEILELSAGGSAGGSAGG [r17_313_TrROS_Hall]” the “folding stability dG unfold” value was 2.27 ± 0.039 kcal/mol. For “SAGGSAGGSAGGKKPKPIKVKVLKYYKNGKIEEKEYTFESPEDLEEFIKANPEVKVLEISSAGGSAGGSAGG [r11_802_TrMRF]”, the “folding stability dG unfold” value was 4.76 ± 0.082 kcal/mol. In the case of “SAGEDGWHVVKIWIMIPGPAQLDEFLEEHPNVEIWPNPNGYFMVRITIRVPVPPPPPERDPDNGEPEPDSAG [r5_129_TrROS]”, the “folding stability dG unfold” value is reported as 4.66 ± 0.064 kcal/mol. In the case of “SAGGSAGGSSMTLTSEKTEKFTEGSKEFLKKTETWKLPGNSTLTKETIIDPSSDKYKEKISLLSAGGSAGGS [r12_1035_JUSTAS]”, the “folding stability dG unfold” value is reported as -0.0253 ± 0.24 kcal/mol. For “SAGGGWPWVVKFEPPDGKEMEFVIPFNPKKNWYWIKMPGNGKTVPVPLDDLEEQPGFQIDEIEPLDDLSAGG [r13_994_TrROS]”, the “folding stability dG unfold” value was 1.31 ± 0.48 kcal/mol. In the case of “SAGGAHEMEWKHEYELPPYRLKVELEWYYDPDGNPQPSIETIEIRPVPPPTIDAEDLPPEQAKENGIASAGG [r13_964_TrROS]”, the “folding stability dG unfold” value is reported as 1.23 ± 0.087 kcal/mol. With “SAGQIVTTDPATGVTTVTIPFPDGSYATITITVEKLTPDKESIVSVDVDFKDKGKKVVPAAVLVEEILSSAG [r5_842_JUSTAS]” the “folding stability dG unfold” value was 1.07 ± 0.11 kcal/mol.

Assay: folding stability dG unfold (combined trypsin and chymotrypsin); higher = more stable
Outline: as §1
With “SAMKVEPFTFKVTFKVPVLNPETGEATEEGVEAEVVVYRSDDGTLYVVAFVKFENGKTAVFPFTIDKDGSAG [r14_50_TrMRF]” the “folding stability dG unfold” value was 3.59 ± 0.064 kcal/mol. For “SAGGSAGGSAMTIVVKSEEEAKKLAELLNAEVVEEKDGYLTIKLEGMSEEERKKILELLKKSAGGSAGGSAG [r3_398_TrROS_Hall]”, the “folding stability dG unfold” value was 2.71 ± 0.11 kcal/mol. In the case of “SAGGSPEQARRWAKYIAETRAGENGWEVEDVEVEQHPGGYVEASIDVQFPDGKKREITITIPPGDPFSAGGS [r8_175_TrROS]”, the “folding stability dG unfold” value is reported as -0.447 ± 0.55 kcal/mol. In the case of “SAGGSMELKPGDSIEFPENIPLDEIIELAKKIAEEFNFEGIEDIENPSEGFYRIRAITPDGRPIEISAGGSA [r2_168_TrMRF]”, the “folding stability dG unfold” value is reported as 0.0617 ± 0.18 kcal/mol. In the case of “SAGGGPNTYVKVTLPLPPNKADVVEEIAKLFPNVKVEVTTTPENGTLPVTFYFPSPDGSPDAKVSIFSAGGS [r8_267_TrMRF]”, the “folding stability dG unfold” value is reported as 0.754 ± 0.15 kcal/mol. In the case of “SAGGSAGGSGMELEKLLESVKEVKVEPTSSGEKEVTITLKPPEPSETEVKIDKETYEKLLELKSAGGSAGGS [r12_466_JUSTAS]”, the “folding stability dG unfold” value is reported as 0.137 ± 0.12 kcal/mol. For “SAGGSAGGKLKVRIEIYRKDPKTNKWTKVKTIEIEIEAESEEELLAAAKALAPPGYEVKVELLPSAGGSAGG [r6_623_TrROS_Hall]”, the “folding stability dG unfold” value was 5.15 ± 0.34 kcal/mol. For “SKIKKIKIVKVKPGEEITTPDGRKIKPGDIVIVDEKTNKVYSAEEIKKLLKELEEKLKKLPKKPKPKKKKSA [r9_517_TrROS_Hall]”, the “folding stability dG unfold” value was 1.49 ± 0.17 kcal/mol. With “SAGGSAITLEDLKNAEIVKPEVMPFPDNGMWMPTWKLRDPGNGKEFVFTFMYNPGNGEPQWSLVPVSAGGSA [r15_170_TrROS]” the “folding stability dG unfold” value was 1.2 ± 0.15 kcal/mol. In the case of “SAGGSAGGSAGGMTVRITTPDGRVIEIPAKDLSPEQLAALKEAGFEVVSVEPGRVTIRLKSAGGSAGGSAGG [r7_496_TrROS_Hall]”, the “folding stability dG unfold” value is reported as 1.49 ± 0.13 kcal/mol. For “SAGGSAGGSAGMKPGEKVLLVKIKIKNENGEEETILVEMSLEELKKLLEEENIEVEILELSAGGSAGGSAGG [r17_313_TrROS_Hall]”, the “folding stability dG unfold” value was 3.03 ± 0.1 kcal/mol. For “SAGGSAGGSAGGKKPKPIKVKVLKYYKNGKIEEKEYTFESPEDLEEFIKANPEVKVLEISSAGGSAGGSAGG [r11_802_TrMRF]”, the “folding stability dG unfold” value was 4.58 ± 0.17 kcal/mol. For “SAGEDGWHVVKIWIMIPGPAQLDEFLEEHPNVEIWPNPNGYFMVRITIRVPVPPPPPERDPDNGEPEPDSAG [r5_129_TrROS]”, the “folding stability dG unfold” value was 4.29 ± 0.1 kcal/mol. For “SAGGSAGGSSMTLTSEKTEKFTEGSKEFLKKTETWKLPGNSTLTKETIIDPSSDKYKEKISLLSAGGSAGGS [r12_1035_JUSTAS]”, the “folding stability dG unfold” value was -0.159 ± 0.18 kcal/mol. In the case of “SAGGGWPWVVKFEPPDGKEMEFVIPFNPKKNWYWIKMPGNGKTVPVPLDDLEEQPGFQIDEIEPLDDLSAGG [r13_994_TrROS]”, the “folding stability dG unfold” value is reported as 1 ± 0.27 kcal/mol. For “SAGGAHEMEWKHEYELPPYRLKVELEWYYDPDGNPQPSIETIEIRPVPPPTIDAEDLPPEQAKENGIASAGG [r13_964_TrROS]”, the “folding stability dG unfold” value was 1.08 ± 0.38 kcal/mol. With “SAGQIVTTDPATGVTTVTIPFPDGSYATITITVEKLTPDKESIVSVDVDFKDKGKKVVPAAVLVEEILSSAG [r5_842_JUSTAS]” the “folding stability dG unfold” value was 0.851 ± 0.17 kcal/mol.

Assay: folding stability dG unfold from trypsin proteolysis; higher = more stable
Outline: as §1
In the case of “SAMKVEPFTFKVTFKVPVLNPETGEATEEGVEAEVVVYRSDDGTLYVVAFVKFENGKTAVFPFTIDKDGSAG [r14_50_TrMRF]”, the “folding stability dG unfold” value is reported as 3.19 ± 0.1 kcal/mol. With “SAGGSAGGSAMTIVVKSEEEAKKLAELLNAEVVEEKDGYLTIKLEGMSEEERKKILELLKKSAGGSAGGSAG [r3_398_TrROS_Hall]” the “folding stability dG unfold” value was 1.96 ± 0.13 kcal/mol. With “SAGGSPEQARRWAKYIAETRAGENGWEVEDVEVEQHPGGYVEASIDVQFPDGKKREITITIPPGDPFSAGGS [r8_175_TrROS]” the “folding stability dG unfold” value was -0.149 ± 0.54 kcal/mol. For “SAGGSMELKPGDSIEFPENIPLDEIIELAKKIAEEFNFEGIEDIENPSEGFYRIRAITPDGRPIEISAGGSA [r2_168_TrMRF]”, the “folding stability dG unfold” value was -0.147 ± 0.23 kcal/mol. With “SAGGGPNTYVKVTLPLPPNKADVVEEIAKLFPNVKVEVTTTPENGTLPVTFYFPSPDGSPDAKVSIFSAGGS [r8_267_TrMRF]” the “folding stability dG unfold” value was 0.407 ± 0.15 kcal/mol. For “SAGGSAGGSGMELEKLLESVKEVKVEPTSSGEKEVTITLKPPEPSETEVKIDKETYEKLLELKSAGGSAGGS [r12_466_JUSTAS]”, the “folding stability dG unfold” value was -0.907 ± 0.21 kcal/mol. In the case of “SAGGSAGGKLKVRIEIYRKDPKTNKWTKVKTIEIEIEAESEEELLAAAKALAPPGYEVKVELLPSAGGSAGG [r6_623_TrROS_Hall]”, the “folding stability dG unfold” value is reported as 4.26 ± 0.24 kcal/mol. With “SKIKKIKIVKVKPGEEITTPDGRKIKPGDIVIVDEKTNKVYSAEEIKKLLKELEEKLKKLPKKPKPKKKKSA [r9_517_TrROS_Hall]” the “folding stability dG unfold” value was 0.814 ± 0.07 kcal/mol. With “SAGGSAITLEDLKNAEIVKPEVMPFPDNGMWMPTWKLRDPGNGKEFVFTFMYNPGNGEPQWSLVPVSAGGSA [r15_170_TrROS]” the “folding stability dG unfold” value was 1.16 ± 0.053 kcal/mol. For “SAGGSAGGSAGGMTVRITTPDGRVIEIPAKDLSPEQLAALKEAGFEVVSVEPGRVTIRLKSAGGSAGGSAGG [r7_496_TrROS_Hall]”, the “folding stability dG unfold” value was 0.865 ± 0.1 kcal/mol. In the case of “SAGGSAGGSAGMKPGEKVLLVKIKIKNENGEEETILVEMSLEELKKLLEEENIEVEILELSAGGSAGGSAGG [r17_313_TrROS_Hall]”, the “folding stability dG unfold” value is reported as 3.88 ± 0.17 kcal/mol. With “SAGGSAGGSAGGKKPKPIKVKVLKYYKNGKIEEKEYTFESPEDLEEFIKANPEVKVLEISSAGGSAGGSAGG [r11_802_TrMRF]” the “folding stability dG unfold” value was 3.04 ± 0.34 kcal/mol. For “SAGEDGWHVVKIWIMIPGPAQLDEFLEEHPNVEIWPNPNGYFMVRITIRVPVPPPPPERDPDNGEPEPDSAG [r5_129_TrROS]”, the “folding stability dG unfold” value was 3.73 ± 0.11 kcal/mol. With “SAGGSAGGSSMTLTSEKTEKFTEGSKEFLKKTETWKLPGNSTLTKETIIDPSSDKYKEKISLLSAGGSAGGS [r12_1035_JUSTAS]” the “folding stability dG unfold” value was -0.727 ± 0.24 kcal/mol. For “SAGGGWPWVVKFEPPDGKEMEFVIPFNPKKNWYWIKMPGNGKTVPVPLDDLEEQPGFQIDEIEPLDDLSAGG [r13_994_TrROS]”, the “folding stability dG unfold” value was -0.0768 ± 0.33 kcal/mol. With “SAGGAHEMEWKHEYELPPYRLKVELEWYYDPDGNPQPSIETIEIRPVPPPTIDAEDLPPEQAKENGIASAGG [r13_964_TrROS]” the “folding stability dG unfold” value was 1.13 ± 0.11 kcal/mol. In the case of “SAGQIVTTDPATGVTTVTIPFPDGSYATITITVEKLTPDKESIVSVDVDFKDKGKKVVPAAVLVEEILSSAG [r5_842_JUSTAS]”, the “folding stability dG unfold” value is reported as 0.25 ± 0.084 kcal/mol.
